T1: IAPP monomers (UniProt P10997 34-70)
T1 peptide (looked up): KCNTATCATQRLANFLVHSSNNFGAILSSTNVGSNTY

T2: IAPP fibrils (UniProt P10997 34-70)
T2 construct: Amyloid fibrils of IAPP spotted in the dot blot; also called islet amyloid polypeptide
T2 peptide (looked up): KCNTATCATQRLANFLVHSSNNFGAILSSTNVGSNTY

T3: fibrils of NAC (61-78) (human)
T3 construct: also called NAC (61-78) (F)
T3 peptide: EQVTNVGGAVVTGVTAVA

T4: α-synuclein peptide 3 (15-28) (human)
T4 construct: also called Peptide No. 3
T4 peptide: VVAAAEKTKQGVAE

T5: α-synuclein peptide 14 (92-105) (human)
T5 construct: also called Peptide No. 14
T5 peptide: TGFVKKDQLGKNEE

T6: α-synuclein peptide 10 (64-77) (human)
T6 construct: also called Peptide No. 10
T6 peptide: TNVGGAVVTGVTAV

T7: α-synuclein peptide 13 (85-98) (human)
T7 construct: also called Peptide No. 13
T7 peptide: AGSIAAATGFVKKD

T8: α-synuclein peptide 16 (106-119) (human)
T8 construct: also called Peptide No. 16
T8 peptide: GAPQEGILEDMPVD

T9: α-synuclein peptide 9 (57-70) (human)
T9 construct: also called Peptide No. 9
T9 peptide: EKTKEQVTNVGGAV

T10: α-synuclein peptide 12 (78-91) (human)
T10 construct: also called Peptide No. 12
T10 peptide: AQKTVEGAGSIAAA

T11: α-synuclein peptide 15 (99-112) (human)
T11 construct: also called Peptide No. 15
T11 peptide: QLGKNEEGAPQEGI

T12: α-synuclein peptide 6 (36-49) (human)
T12 construct: also called Peptide No. 6
T12 peptide: GVLYVGSKTKEGVV

T13: α-synuclein peptide 1 (1-14) (human)
T13 construct: also called Peptide No. 1
T13 peptide: MDVFMKGLSKAKEG

T14: α-synuclein peptide 8 (50-63) (human)
T14 construct: also called Peptide No. 8
T14 peptide: HGVATVAEKTKEQV

T15: α-synuclein peptide 2 (8-21) (human)
T15 construct: also called Peptide No. 2
T15 peptide: LSKAKEGVVAAAEK

T16: α-synuclein peptide 17 (113-126) (human)
T16 construct: also called Peptide No. 17
T16 peptide: LEDMPVDPDNEAYE

T17: α-synuclein peptide 18 (120-133) (human)
T17 construct: also called Peptide No. 18
T17 peptide: PDNEAYEMPSEEGY

T18: α-synuclein peptide 11 (71-84) (human)
T18 construct: also called Peptide No. 11
T18 peptide: VTGVTAVAQKTVEG

T19: α-synuclein peptide 7 (43-56) (human)
T19 construct: also called Peptide No. 7
T19 peptide: KTKEGVVHGVATVA


Legend:
fibrils of NAC (61-95) = molecular target: T20, fibrils of NAC (61-95) (human); assay: dot blot
T20 construct: also called NAC region (61-95) (F)
Experimental: (§1) The membranes were blocked with 5% skimmed milk in PBST (PBS containing 0.05% Tween) and incubated for 1 h at room temperature. […] The membranes were washed and incubated with either 1/20000 diluted goat anti-mouse IgG-HRP (Jackson ImmunoResearch) or 1/10000 diluted goat anti-rabbit IgG-HRP (Jackson Immunoresearch) for 1 h at room temperature. The blots were then developed with Super signal West Pico chemiluminescent substrate.
(§2) C) To test the cross reactivity of our conformational monoclonal antibodies to different fragments of α-synuclein. […] The membranes were washed before incubating with either 1/20000 diluted goat anti-mouse IgG-HRP conjugate (Jackson Immunoresearch) or 1/300000 diluted chicken anti-goat IgG-HRP conjugate (Santa Cruz Biotechnology) for 1 h at room temperature. The blots were then developed with Super signal West Pico chemiluminescent substrate.

IAPP monomers = molecular target: T1, IAPP monomers; assay: dot blot
Experimental: as §1, §2

A-beta fibrils = molecular target: T21, A-beta fibrils (UniProt P05067 672-713, limits assumed); assay: dot blot
T21 construct: Amyloid fibrils of A-beta spotted in the dot blot; also called β-amyloid
Experimental: as §1, §2

A-beta monomers = molecular target: T22, A-beta monomers (UniProt P05067 672-713, limits assumed); assay: dot blot
T22 construct: also called β-amyloid monomers
Experimental: as §1, §2

IAPP fibrils = molecular target: T2, IAPP fibrils; assay: dot blot
Experimental: as §1, §2

β-synuclein monomers = β-synuclein monomers (UniProt Q16143 1-134); assay: dot blot
Sequence of β-synuclein monomers (Q16143 whole entry): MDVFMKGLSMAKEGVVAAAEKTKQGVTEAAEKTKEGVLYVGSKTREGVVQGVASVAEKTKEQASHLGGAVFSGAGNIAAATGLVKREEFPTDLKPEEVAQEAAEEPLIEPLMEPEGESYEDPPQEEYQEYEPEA
Experimental: as §1, §2

fibrils of NAC (61-78) = molecular target: T3, fibrils of NAC (61-78); assay: dot blot
Experimental: as §1, §2

γ-synuclein monomers = γ-synuclein monomers (UniProt O76070 1-127); assay: dot blot
Sequence of γ-synuclein monomers (O76070 whole entry): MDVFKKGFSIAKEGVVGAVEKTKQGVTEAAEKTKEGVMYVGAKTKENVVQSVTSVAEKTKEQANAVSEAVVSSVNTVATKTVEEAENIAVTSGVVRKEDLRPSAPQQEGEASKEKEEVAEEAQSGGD
Experimental: as §1, §2

β-synuclein fibrils = β-synuclein fibrils (UniProt Q16143 1-134); assay: dot blot
Sequence of β-synuclein fibrils (Q16143 whole entry): as the sequence (Q16143 whole entry) above
Experimental: as §1, §2

γ-synuclein fibrils = γ-synuclein fibrils (UniProt O76070 1-127); assay: dot blot
Sequence of γ-synuclein fibrils (O76070 whole entry): as the sequence (O76070 whole entry) above
Experimental: as §1, §2

[1] = molecular target: T4, α-synuclein peptide 3 (15-28); assay: pepscan ELISA
Experimental: (§3) To confirm the pepscan results using dot blot the mAbs were also tested by Pepscan using ELISA. […] The plate was washed with PBST and 50 μl of substrate (SuperSignal ELISA Femto Maximum Sensitivity Substrate, Thermo Scientific) was added and immediately read the plate using Victor X3 microtiter plate reader. After the ELISA signals were measured, the plate was also exposed onto X-ray film to develop the spots.

[2] = molecular target: T5, α-synuclein peptide 14 (92-105); assay: pepscan ELISA
Experimental: as §3

[3] = molecular target: T6, α-synuclein peptide 10 (64-77); assay: pepscan ELISA
Experimental: as §3

[4] = molecular target: T7, α-synuclein peptide 13 (85-98); assay: pepscan ELISA
Experimental: as §3

[5] = molecular target: T8, α-synuclein peptide 16 (106-119); assay: pepscan ELISA
Experimental: as §3

[6] = molecular target: T9, α-synuclein peptide 9 (57-70); assay: pepscan ELISA
Experimental: as §3

[7] = molecular target: T10, α-synuclein peptide 12 (78-91); assay: pepscan ELISA
Experimental: as §3

[8] = molecular target: T11, α-synuclein peptide 15 (99-112); assay: pepscan ELISA
Experimental: as §3

[9] = molecular target: T12, α-synuclein peptide 6 (36-49); assay: pepscan ELISA
Experimental: as §3

[10] = molecular target: T13, α-synuclein peptide 1 (1-14); assay: pepscan ELISA
Experimental: as §3

[11] = molecular target: T14, α-synuclein peptide 8 (50-63); assay: pepscan ELISA
Experimental: as §3

[12] = molecular target: T15, α-synuclein peptide 2 (8-21); assay: pepscan ELISA
Experimental: as §3

[13] = molecular target: T16, α-synuclein peptide 17 (113-126); assay: pepscan ELISA
Experimental: as §3

[14] = molecular target: T17, α-synuclein peptide 18 (120-133); assay: pepscan ELISA
Experimental: as §3

[15] = molecular target: T18, α-synuclein peptide 11 (71-84); assay: pepscan ELISA
Experimental: as §3

[16] = molecular target: T19, α-synuclein peptide 7 (43-56); assay: pepscan ELISA
Experimental: as §3

binding result (fibrils of NAC (61-95))	binding result (β-synuclein monomers)	binding result (fibrils of NAC (61-78))	binding result (γ-synuclein monomers)	binding result (β-synuclein fibrils)	binding result (γ-synuclein fibrils)	Binder	binding result (IAPP monomers)	binding result (A-beta fibrils)	binding result (A-beta monomers)	binding result (IAPP fibrils)	binding result [1]	binding result [2]	binding result [3]	binding result [4]	binding result [5]	binding result [6]	binding result [7]	binding result [8]	binding result [9]	binding result [10]	other results
no binding (tested: 50 ng spotted)	no binding (tested: 50 ng spotted)	no binding (tested: 50 ng spotted)	no binding (tested: 50 ng spotted)	no binding (tested: 50 ng spotted)	no binding (tested: 50 ng spotted)	Syn-O2 (antibody, IgG1, V domains shown, same VH and VL as Syn-O1, Syn-O3, Syn-O4; also called mAb Syn-O2) VH: EVQLVESGGGLVQPKGSLKLSCAASGFTFNTYAMHWVRQAPGKGLEWVARIRSKSSNYATYYADSVKDRFTISRDDSQSMLYLQMNNLKTEDTAMYYCVRPLKWYFDVWGTGTTVTVSS VL: QIVLTQSPAILSASPGEKVTMTCSASSTVNYMHWYQQKSGTSPKIWIYDTSKLASGVPARFSGSGSWTSYSLTISSMEAEDAATYYCQQWNSNPPTFGAGTKLELK	no binding (tested: 50 ng/ml antibody, 50 ng spotted)	no binding (tested: 50 ng/ml antibody, 50 ng spotted)	no binding (tested: 50 ng/ml antibody, 50 ng spotted)	no binding (tested: 50 ng/ml antibody, 50 ng spotted)	no binding (tested: 100 ng/ml antibody, 500 ng/well peptide)	no binding (tested: 100 ng/ml antibody, 500 ng/well peptide)	no binding (tested: 100 ng/ml antibody, 500 ng/well peptide)	no binding (tested: 100 ng/ml antibody, 500 ng/well peptide)	no binding (tested: 100 ng/ml antibody, 500 ng/well peptide)	no binding (tested: 100 ng/ml antibody, 500 ng/well peptide)	no binding (tested: 100 ng/ml antibody, 500 ng/well peptide)	no binding (tested: 100 ng/ml antibody, 500 ng/well peptide)	no binding (tested: 100 ng/ml antibody, 500 ng/well peptide)	no binding (tested: 100 ng/ml antibody, 500 ng/well peptide)	binding result [11]: no binding (tested: 100 ng/ml antibody, 500 ng/well peptide); binding result [12]: no binding (tested: 100 ng/ml antibody, 500 ng/well peptide); binding result [13]: no binding (tested: 100 ng/ml antibody, 500 ng/well peptide); binding result [14]: no binding (tested: 100 ng/ml antibody, 500 ng/well peptide); binding result [15]: no binding (tested: 100 ng/ml antibody, 500 ng/well peptide); binding result [16]: no binding (tested: 100 ng/ml antibody, 500 ng/well peptide)
no binding (tested: 50 ng spotted)	no binding (tested: 50 ng spotted)	no binding (tested: 50 ng spotted)	no binding (tested: 50 ng spotted)	no binding (tested: 50 ng spotted)	no binding (tested: 50 ng spotted)	Syn-O4 (antibody, IgG1, V domains shown, same VH and VL as Syn-O1, Syn-O2, Syn-O3; also called mAb Syn-O4) VH: EVQLVESGGGLVQPKGSLKLSCAASGFTFNTYAMHWVRQAPGKGLEWVARIRSKSSNYATYYADSVKDRFTISRDDSQSMLYLQMNNLKTEDTAMYYCVRPLKWYFDVWGTGTTVTVSS VL: QIVLTQSPAILSASPGEKVTMTCSASSTVNYMHWYQQKSGTSPKIWIYDTSKLASGVPARFSGSGSWTSYSLTISSMEAEDAATYYCQQWNSNPPTFGAGTKLELK	no binding (tested: 50 ng/ml antibody, 50 ng spotted)	no binding (tested: 50 ng/ml antibody, 50 ng spotted)	no binding (tested: 50 ng/ml antibody, 50 ng spotted)	no binding (tested: 50 ng/ml antibody, 50 ng spotted)	no binding (tested: 100 ng/ml antibody, 500 ng/well peptide)	no binding (tested: 100 ng/ml antibody, 500 ng/well peptide)	no binding (tested: 100 ng/ml antibody, 500 ng/well peptide)	no binding (tested: 100 ng/ml antibody, 500 ng/well peptide)	no binding (tested: 100 ng/ml antibody, 500 ng/well peptide)	no binding (tested: 100 ng/ml antibody, 500 ng/well peptide)	no binding (tested: 100 ng/ml antibody, 500 ng/well peptide)	no binding (tested: 100 ng/ml antibody, 500 ng/well peptide)	no binding (tested: 100 ng/ml antibody, 500 ng/well peptide)	no binding (tested: 100 ng/ml antibody, 500 ng/well peptide)	binding result [11]: no binding (tested: 100 ng/ml antibody, 500 ng/well peptide); binding result [12]: no binding (tested: 100 ng/ml antibody, 500 ng/well peptide); binding result [13]: no binding (tested: 100 ng/ml antibody, 500 ng/well peptide); binding result [14]: no binding (tested: 100 ng/ml antibody, 500 ng/well peptide); binding result [15]: no binding (tested: 100 ng/ml antibody, 500 ng/well peptide); binding result [16]: no binding (tested: 100 ng/ml antibody, 500 ng/well peptide)
no binding (tested: 50 ng spotted)	no binding (tested: 50 ng spotted)	no binding (tested: 50 ng spotted)	no binding (tested: 50 ng spotted)	no binding (tested: 50 ng spotted)	no binding (tested: 50 ng spotted)	Syn-O3 (antibody, IgG1, V domains shown, same VH and VL as Syn-O1, Syn-O2, Syn-O4; also called mAb Syn-O3) VH: EVQLVESGGGLVQPKGSLKLSCAASGFTFNTYAMHWVRQAPGKGLEWVARIRSKSSNYATYYADSVKDRFTISRDDSQSMLYLQMNNLKTEDTAMYYCVRPLKWYFDVWGTGTTVTVSS VL: QIVLTQSPAILSASPGEKVTMTCSASSTVNYMHWYQQKSGTSPKIWIYDTSKLASGVPARFSGSGSWTSYSLTISSMEAEDAATYYCQQWNSNPPTFGAGTKLELK	no binding (tested: 50 ng/ml antibody, 50 ng spotted)	no binding (tested: 50 ng/ml antibody, 50 ng spotted)	no binding (tested: 50 ng/ml antibody, 50 ng spotted)	no binding (tested: 50 ng/ml antibody, 50 ng spotted)	no binding (tested: 100 ng/ml antibody, 500 ng/well peptide)	no binding (tested: 100 ng/ml antibody, 500 ng/well peptide)	no binding (tested: 100 ng/ml antibody, 500 ng/well peptide)	no binding (tested: 100 ng/ml antibody, 500 ng/well peptide)	no binding (tested: 100 ng/ml antibody, 500 ng/well peptide)	no binding (tested: 100 ng/ml antibody, 500 ng/well peptide)	no binding (tested: 100 ng/ml antibody, 500 ng/well peptide)	no binding (tested: 100 ng/ml antibody, 500 ng/well peptide)	no binding (tested: 100 ng/ml antibody, 500 ng/well peptide)	no binding (tested: 100 ng/ml antibody, 500 ng/well peptide)	binding result [11]: no binding (tested: 100 ng/ml antibody, 500 ng/well peptide); binding result [12]: no binding (tested: 100 ng/ml antibody, 500 ng/well peptide); binding result [13]: no binding (tested: 100 ng/ml antibody, 500 ng/well peptide); binding result [14]: no binding (tested: 100 ng/ml antibody, 500 ng/well peptide); binding result [15]: no binding (tested: 100 ng/ml antibody, 500 ng/well peptide); binding result [16]: no binding (tested: 100 ng/ml antibody, 500 ng/well peptide)

Source: US20140241984A1 (UNITED ARAB EMIRATES UNIVERSITY, published 2014)
